Experimental data from patent US20240309060A1, “POLYPEPTIDE BAX/NPM INHIBITORS” (TRUSTEES OF BOSTON UNIVERSITY, priority 2023, published 2024).
Each block holds one binder with its values, some of them ahead of it. Square brackets hold non-standard residues; d marks the D form. βAla = NCCC(=O)O

Tests used:
[1] = target: human nucleophosmin 1 (NPM1) (human), P06748; test: SPR on human NPM1, KD calculated as koff/kon
[2] = target: human nucleophosmin 1 (NPM1) (human), P06748; test: SPR on human NPM1, mean of at least three peptide concentrations below saturation

Sequence of human nucleophosmin 1 (NPM1) (human), P06748 (P06748 whole entry): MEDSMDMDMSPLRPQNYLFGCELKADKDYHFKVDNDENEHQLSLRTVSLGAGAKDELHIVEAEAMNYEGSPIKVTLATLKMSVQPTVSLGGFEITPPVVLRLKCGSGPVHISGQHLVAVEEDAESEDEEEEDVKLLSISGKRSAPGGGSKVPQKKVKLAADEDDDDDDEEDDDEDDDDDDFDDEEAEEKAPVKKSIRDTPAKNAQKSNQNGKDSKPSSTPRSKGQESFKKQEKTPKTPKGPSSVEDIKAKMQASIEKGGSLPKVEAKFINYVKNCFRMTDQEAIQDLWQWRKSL

Kd [1]: 842 nM
koff [2]: 0.0616 s⁻¹
kon [2]: 73200 M⁻¹ s⁻¹
B1: NPMB1-I-010 (peptide)
peptide: Ac-KKRRRKKRRRKKRRRK[βAla]TVTIFVAGVLTASLTIWKKMG-OH
SMILES: CC[C@H](C)[C@H](NC(=O)[C@@H](NC(=O)[C@H](CC(C)C)NC(=O)[C@H](CO)NC(=O)[C@H](C)NC(=O)[C@@H](NC(=O)[C@H](CC(C)C)NC(=O)[C@@H](NC(=O)CNC(=O)[C@H](C)NC(=O)[C@@H](NC(=O)[C@H](Cc1ccccc1)NC(=O)[C@@H](NC(=O)[C@@H](NC(=O)[C@@H](NC(=O)[C@@H](NC(=O)CCNC(=O)[C@H](CCCCN)NC(=O)[C@H](CCCNC(=N)N)NC(=O)[C@H](CCCNC(=N)N)NC(=O)[C@H](CCCNC(=N)N)NC(=O)[C@H](CCCCN)NC(=O)[C@H](CCCCN)NC(=O)[C@H](CCCNC(=N)N)NC(=O)[C@H](CCCNC(=N)N)NC(=O)[C@H](CCCNC(=N)N)NC(=O)[C@H](CCCCN)NC(=O)[C@H](CCCCN)NC(=O)[C@H](CCCNC(=N)N)NC(=O)[C@H](CCCNC(=N)N)NC(=O)[C@H](CCCNC(=N)N)NC(=O)[C@H](CCCCN)NC(=O)[C@H](CCCCN)NC(C)=O)[C@@H](C)O)C(C)C)[C@@H](C)O)[C@@H](C)CC)C(C)C)C(C)C)[C@@H](C)O)[C@@H](C)O)C(=O)N[C@@H](Cc1c[nH]c2ccccc12)C(=O)N[C@@H](CCCCN)C(=O)N[C@@H](CCCCN)C(=O)N[C@@H](CCSC)C(=O)NCC(=O)O

Kd [1]: 337 nM
koff [2]: 0.0299 s⁻¹
kon [2]: 88500 M⁻¹ s⁻¹
B2: NPMB1-I-011 (peptide)
peptide: Ac-RREEERREEERREEEK[βAla]TVTIFVAGVLTASLTIWKKMG-OH
SMILES: CC[C@H](C)[C@H](NC(=O)[C@@H](NC(=O)[C@H](CC(C)C)NC(=O)[C@H](CO)NC(=O)[C@H](C)NC(=O)[C@@H](NC(=O)[C@H](CC(C)C)NC(=O)[C@@H](NC(=O)CNC(=O)[C@H](C)NC(=O)[C@@H](NC(=O)[C@H](Cc1ccccc1)NC(=O)[C@@H](NC(=O)[C@@H](NC(=O)[C@@H](NC(=O)[C@@H](NC(=O)CCNC(=O)[C@H](CCCCN)NC(=O)[C@H](CCC(=O)O)NC(=O)[C@H](CCC(=O)O)NC(=O)[C@H](CCC(=O)O)NC(=O)[C@H](CCCNC(=N)N)NC(=O)[C@H](CCCNC(=N)N)NC(=O)[C@H](CCC(=O)O)NC(=O)[C@H](CCC(=O)O)NC(=O)[C@H](CCC(=O)O)NC(=O)[C@H](CCCNC(=N)N)NC(=O)[C@H](CCCNC(=N)N)NC(=O)[C@H](CCC(=O)O)NC(=O)[C@H](CCC(=O)O)NC(=O)[C@H](CCC(=O)O)NC(=O)[C@H](CCCNC(=N)N)NC(=O)[C@H](CCCNC(=N)N)NC(C)=O)[C@@H](C)O)C(C)C)[C@@H](C)O)[C@@H](C)CC)C(C)C)C(C)C)[C@@H](C)O)[C@@H](C)O)C(=O)N[C@@H](Cc1c[nH]c2ccccc12)C(=O)N[C@@H](CCCCN)C(=O)N[C@@H](CCCCN)C(=O)N[C@@H](CCSC)C(=O)NCC(=O)O
